Data as given in US20240174992A1, “SPLIT MODIFIED DEHALOGENASE VARIANTS” (Promega Corporation, priority 2022, published 2024).

Tests used:
Experiment in all cases: cell-based or functional assay
[1] = biological target: HT(146-297)-FRB (UniProt P42345)
[2] = biological target: HT(158-297)-FRB (UniProt P42345)
[3] = biological target: [196-297]-FRB (UniProt P42345)
[4] = biological target: HT(23-297)-FRB fragment fused to LgBiT (UniProt P42345)
[5] = biological target: HaloTag[22-297](M2F)-FRB (UniProt P42345)
Sequence of HaloTag[22-297](M2F)-FRB (P42345 other isoform, or with tags, fused parts or gaps): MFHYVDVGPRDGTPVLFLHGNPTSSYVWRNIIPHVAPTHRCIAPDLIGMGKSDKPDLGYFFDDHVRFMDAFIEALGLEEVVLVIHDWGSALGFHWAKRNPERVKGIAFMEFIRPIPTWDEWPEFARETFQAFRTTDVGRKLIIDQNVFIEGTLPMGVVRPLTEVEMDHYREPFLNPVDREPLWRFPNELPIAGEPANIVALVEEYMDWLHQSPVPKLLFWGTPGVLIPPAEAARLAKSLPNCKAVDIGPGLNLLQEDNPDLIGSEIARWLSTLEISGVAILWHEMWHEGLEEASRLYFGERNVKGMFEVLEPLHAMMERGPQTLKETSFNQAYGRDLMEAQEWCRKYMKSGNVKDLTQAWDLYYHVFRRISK

[6] = biological target: HaloTag[22-297](Q145H+P154R)-FRB (UniProt P42345)
Sequence of HaloTag[22-297](Q145H+P154R)-FRB (P42345 other isoform, or with tags, fused parts or gaps Q145H P154R Q145H P154R): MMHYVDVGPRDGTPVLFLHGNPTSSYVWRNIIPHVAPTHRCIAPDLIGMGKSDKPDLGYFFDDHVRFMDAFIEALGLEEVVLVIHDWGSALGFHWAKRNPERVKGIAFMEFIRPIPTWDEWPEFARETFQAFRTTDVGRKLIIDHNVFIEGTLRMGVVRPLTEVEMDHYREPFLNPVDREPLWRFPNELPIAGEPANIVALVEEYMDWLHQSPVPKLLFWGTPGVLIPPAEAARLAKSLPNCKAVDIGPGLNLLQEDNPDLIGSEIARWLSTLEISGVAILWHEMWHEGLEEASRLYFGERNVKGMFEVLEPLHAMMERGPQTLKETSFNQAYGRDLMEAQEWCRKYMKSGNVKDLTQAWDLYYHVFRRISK

Sequence of EGFP-FKBP-HaloTag[3-19] (P62942 other isoform, or with tags, fused parts or gaps): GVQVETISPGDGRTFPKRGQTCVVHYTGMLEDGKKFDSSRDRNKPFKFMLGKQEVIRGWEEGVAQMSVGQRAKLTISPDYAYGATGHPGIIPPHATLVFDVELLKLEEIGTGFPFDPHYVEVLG
Sequence of HT(23-297)-FRB fragment fused to LgBiT (P42345 other isoform, or with tags, fused parts or gaps): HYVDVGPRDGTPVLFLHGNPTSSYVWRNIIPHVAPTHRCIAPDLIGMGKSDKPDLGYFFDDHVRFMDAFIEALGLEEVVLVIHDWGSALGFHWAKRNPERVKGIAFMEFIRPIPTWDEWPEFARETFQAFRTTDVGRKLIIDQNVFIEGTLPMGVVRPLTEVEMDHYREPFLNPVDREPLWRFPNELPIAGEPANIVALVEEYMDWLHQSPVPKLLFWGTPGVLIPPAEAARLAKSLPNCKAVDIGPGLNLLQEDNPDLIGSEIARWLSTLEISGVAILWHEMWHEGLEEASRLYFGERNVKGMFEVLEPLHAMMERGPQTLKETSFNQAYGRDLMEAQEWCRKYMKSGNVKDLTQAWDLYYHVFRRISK
Sequence of [1-195]-FKBP (P62942 other isoform, or with tags, fused parts or gaps): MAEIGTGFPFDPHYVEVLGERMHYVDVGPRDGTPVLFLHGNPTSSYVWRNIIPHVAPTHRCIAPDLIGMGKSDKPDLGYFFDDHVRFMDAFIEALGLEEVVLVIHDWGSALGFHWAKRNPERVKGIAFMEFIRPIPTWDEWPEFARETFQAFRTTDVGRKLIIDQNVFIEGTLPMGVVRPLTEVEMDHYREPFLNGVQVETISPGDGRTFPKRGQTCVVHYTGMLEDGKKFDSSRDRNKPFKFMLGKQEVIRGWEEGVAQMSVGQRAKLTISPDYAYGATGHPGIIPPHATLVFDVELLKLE
Sequence of FKBP-HT(1-33) fragment as SmBiT or HiBiT fragment fusions (P62942 other isoform, or with tags, fused parts or gaps): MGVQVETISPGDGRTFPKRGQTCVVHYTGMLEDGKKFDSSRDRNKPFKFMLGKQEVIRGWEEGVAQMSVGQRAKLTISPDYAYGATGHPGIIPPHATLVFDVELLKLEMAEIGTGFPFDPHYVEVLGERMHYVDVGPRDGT
Sequence of [196-297]-FRB (P42345 other isoform, or with tags, fused parts or gaps limits assumed): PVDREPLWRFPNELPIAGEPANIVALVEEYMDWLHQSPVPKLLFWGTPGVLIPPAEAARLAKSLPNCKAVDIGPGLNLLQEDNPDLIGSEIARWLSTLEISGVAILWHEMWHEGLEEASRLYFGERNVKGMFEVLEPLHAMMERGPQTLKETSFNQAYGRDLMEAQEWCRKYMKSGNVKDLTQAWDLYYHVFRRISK
Sequence of HT(1-145)-FKBP (P62942 other isoform, or with tags, fused parts or gaps): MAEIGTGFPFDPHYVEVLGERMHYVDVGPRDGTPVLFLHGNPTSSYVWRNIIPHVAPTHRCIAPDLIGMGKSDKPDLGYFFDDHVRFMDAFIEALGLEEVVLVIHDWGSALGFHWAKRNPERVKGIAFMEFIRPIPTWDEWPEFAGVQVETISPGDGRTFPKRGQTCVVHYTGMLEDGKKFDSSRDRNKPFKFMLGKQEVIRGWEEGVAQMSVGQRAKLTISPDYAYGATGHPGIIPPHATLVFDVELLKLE
Sequence of HT(146-297)-FRB (P42345 other isoform, or with tags, fused parts or gaps limits assumed): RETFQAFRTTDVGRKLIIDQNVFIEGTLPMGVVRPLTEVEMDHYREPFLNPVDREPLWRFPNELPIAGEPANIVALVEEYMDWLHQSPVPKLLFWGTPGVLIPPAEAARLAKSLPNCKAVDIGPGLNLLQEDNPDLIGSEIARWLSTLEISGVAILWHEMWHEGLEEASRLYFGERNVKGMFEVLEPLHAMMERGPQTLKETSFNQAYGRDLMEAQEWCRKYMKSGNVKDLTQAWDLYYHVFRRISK
Sequence of HT(158-297)-FRB (P42345 other isoform, or with tags, fused parts or gaps limits assumed): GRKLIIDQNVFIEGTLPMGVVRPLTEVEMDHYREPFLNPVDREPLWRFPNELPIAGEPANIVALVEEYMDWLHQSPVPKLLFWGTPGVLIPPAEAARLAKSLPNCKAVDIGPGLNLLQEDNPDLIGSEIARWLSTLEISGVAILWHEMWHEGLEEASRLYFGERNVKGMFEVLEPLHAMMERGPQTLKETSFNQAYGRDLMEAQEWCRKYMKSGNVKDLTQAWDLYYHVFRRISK
Sequence of HT(1-157)-FKBP (P62942 other isoform, or with tags, fused parts or gaps): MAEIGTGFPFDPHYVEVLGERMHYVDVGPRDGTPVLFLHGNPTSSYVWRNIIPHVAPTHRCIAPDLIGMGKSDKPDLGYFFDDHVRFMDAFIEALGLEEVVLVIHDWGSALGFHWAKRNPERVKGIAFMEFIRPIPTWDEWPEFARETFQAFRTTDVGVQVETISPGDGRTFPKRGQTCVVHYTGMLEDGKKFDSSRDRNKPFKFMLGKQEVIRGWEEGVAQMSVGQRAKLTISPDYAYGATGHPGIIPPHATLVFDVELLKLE

Which fold increase of JF646 and JF585 fluorescence in live HeLa cells with 50 nM rapamycin [1] does the source give for “HT(1-145)-FKBP (from UniProt P62942 2-108)” here?
Its fold increase of JF646 and JF585 fluorescence in live HeLa cells with 50 nM rapamycin is under 2 fold.

For “HT(1-157)-FKBP (from UniProt P62942 2-108)”, which fold increase of JF646 and JF585 fluorescence in live HeLa cells with 50 nM rapamycin [2] is on record?
The fold increase of JF646 and JF585 fluorescence in live HeLa cells with 50 nM rapamycin was under 2 fold.

How did the fold increase in JF646 fluorescence with 50 nM rapamycin (E. coli lysates) [3] turn out when “[1-195]-FKBP (from UniProt P62942 2-108)” was run?
The fold increase in JF646 fluorescence with 50 nM rapamycin (E. coli lysates) was 4.7 fold.

And the fold increase of JF646 and JF585 fluorescence in live HeLa cells with 50 nM rapamycin [3]?
The fold increase of JF646 and JF585 fluorescence in live HeLa cells with 50 nM rapamycin was under 2 fold.

Which fold increase in NanoBiT luminescence on addition of rapamycin [4] does the source give for “FKBP-HT(1-33) fragment as SmBiT or HiBiT fragment fusions (from UniProt P62942 1-108)” here?
Its fold increase in NanoBiT luminescence on addition of rapamycin is 100 to 250 fold.

How did the S:B ratio in +rapamycin/-rapamycin conditions, live HeLa imaging [5] turn out when “EGFP-FKBP-HaloTag[3-19] (from UniProt P62942 2-108)” was run?
Its S:B ratio in +rapamycin/-rapamycin conditions, live HeLa imaging is 6.7.

And the signal-to-background ratio, complemented split HaloTag with rapamycin over the large HaloTag alone [5]?
The signal-to-background ratio, complemented split HaloTag with rapamycin over the large HaloTag alone was 16.

And the S:B ratio in +rapamycin/-rapamycin conditions, live HeLa imaging [6]?
Its S:B ratio in +rapamycin/-rapamycin conditions, live HeLa imaging is 4.

And the fold response of JF646 fluorescence to rapamycin, live HeLa imaging [6]?
Its fold response of JF646 fluorescence to rapamycin, live HeLa imaging is 25 fold.

What about the signal-to-background ratio, complemented split HaloTag with rapamycin over the large HaloTag alone [6] of the same substance?
The signal-to-background ratio, complemented split HaloTag with rapamycin over the large HaloTag alone was 5.7.
